# Measurements as given in patent US11505811B2, “Method for the preparation of 2,4-dihydroxybutyrate” (ADISSEO FRANCE S.A.S., priority 2012, dated 2022).
# Numbering of substitutions follows the chain as printed. Names may count otherwise.
# B1: Gs-Ldh: (L)-lactate dehydrogenase of Geobacillus stearothermophilus, SEQ ID NO: 10 (protein, listed as Geobacillus sterarothermophillus)
# chain: MKNNGGARVVVIGAGFVGASYVFALMNQGIADEIVLIDANESKAIGDAMDFNHGKVFAPKPVDIWHGDYDDCRDADLVVICAGANQKPGETRLDLVDKNIAIFRSIVESVMASGFQGLFLVATNPVDILTYATWKFSGLPHERVIGSGTILDTARFRFLLGEYFSVAPQNVHAYIIGEHGDTELPVWSQAYIGVMPIRKLVESKGEEAQKDLERIFVNVRDAAYQIIEKKGATYYGIAMGLARVTRAILHNENAILTVSAYLDGLYGERDVYIGVPAVINRNGIREVIEIELNDDEKNRFHHSAATLKSVLARAFTR
# B2: Ec-LdhA: (D)-lactate dehydrogenase from Escherichia coli, SEQ ID NO: 4 (protein, listed as Escherichia coli)
# chain: MKLAVYSTKQYDKKYLQQVNESFGFELEFFDFLLTEKTAKTANGCEAVCIFVNDDGSRPVLEELKKHGVKYIALRCAGFNNVDLDAAKELGLKVVRVPAYDPEAVAEHAIGMMMTLNRRIHRAYQRTRDANFSLEGLTGFTMYGKTAGVIGTGKIGVAMLRILKGFGMRLLAFDPYPSAAALELGVEYVDLPTLFSESDVISLHCPLTPENYHLLNEAAFEQMKNGVMIVNTSRGALIDSQAAIEALKNQKIGSLGMDVYENERDLFFEDKSNDVIQDDVFRRLSACHNVLFTGHQAFLTAEALTSISQTTLQNLSNLEKGETCPNELV
# B3: R81A: E. coli malate dehydrogenase mutant R81A, SEQ ID No. 102 (protein, listed as Escherichia coli)
# chain: MDHRAMKVAVLGAAGGIGQALALLLKTQLPSGSELSLYDIAPVTPGVAVDLSHIPTAVKIKGFSGEDATPALEGADVVLISAGVAAKPGMDRSDLFNVNAGIVKNLVQQVAKTCPKACIGIITNPVNTTVAIAAEVLKKAGVYDKNKLFGVTTLDIIRSNTFVAELKGKQPGEVEVPVIGGHSGVTILPLLSQVPGVSFTEQEVADLTKRIQNAGTEVVEAKAGGGSATLSMGQAAARFGLSLVRALQGEQGVVECAYVEGDGQYARFFSQPLLLGKNGVEERKSIGTLSAFEQNALEGMLDTLKKDIALGEEFVNK
# B4: Ec-Mdh: (L)-malate dehydrogenase from Escherichia coli, SEQ ID NO: 2 (protein, listed as Escherichia coli)
# chain: MKVAVLGAAGGIGQALALLLKTQLPSGSELSLYDIAPVTPGVAVDLSHIPTAVKIKGFSGEDATPALEGADVVLISAGVARKPGMDRSDLFNVNAGIVKNLVQQVAKTCPKACIGIITNPVNTTVAIAAEVLKKAGVYDKNKLFGVTTLDIIRSNTFVAELKGKQPGEVEVPVIGGHSGVTILPLLSQVPGVSFTEQEVADLTKRIQNAGTEVVEAKAGGGSATLSMGQAAARFGLSLVRALQGEQGVVECAYVEGDGQYARFFSQPLLLGKNGVEERKSIGTLSAFEQNALEGMLDTLKKDIALGEEFVNK
# B5: R81A M85E I12V: E. coli malate dehydrogenase mutant, SEQ ID No. 110 (protein, listed as Escherichia coli)
# chain: B4 chain with I12V, R81A, M85E
# B6: R81A G179D D86S: E. coli malate dehydrogenase mutant, SEQ ID No. 118 (protein, listed as Escherichia coli)
# chain: B4 chain with R81A, D86S, G179D
# B7: R81A M85E: E. coli malate dehydrogenase mutant, SEQ ID No. 106 (protein, listed as Escherichia coli)
# chain: B4 chain with R81A, M85E
# B8: R81A M85Q: E. coli malate dehydrogenase mutant, SEQ ID No. 104 (protein, listed as Escherichia coli)
# chain: B4 chain with R81A, M85Q
# B9: R81A 112V: E. coli malate dehydrogenase mutant, SEQ ID No. 115 as printed (protein, listed as Escherichia coli)
# chain: B4 chain with I12V, R81A
# B10: R81A G179D: E. coli malate dehydrogenase mutant, SEQ ID No. 112 (protein, listed as Escherichia coli)
# chain: B4 chain with R81A, G179D
# B11: R81A M85Q I12V: E. coli malate dehydrogenase mutant, SEQ ID No. 108 (protein, listed as Escherichia coli)
# chain: B4 chain with I12V, R81A, M85Q
# B12: R81A D86S: E. coli malate dehydrogenase mutant, SEQ ID No. 1114 as printed (protein, UniProt P61889 1-312, looked up, variant R81A D86S)
# Malate dehydrogenase: B4 chain with R81A, D86S
# B13: Bs-Ldh: (L)-lactate dehydrogenase of Bacillus subtilis, SEQ ID NO: 8 (protein, listed as Bacillus subtilis)
# chain: MMNKHVNKVALIGAGFVGSSYAFALINQGITDELVVIDVNKEKAMGDVMDLNHGKAFAPQPVKTSYGTYEDCKDADIVCICAGANQKPGETRLELVEKNLKIFKGIVSEVMASGFDGIFLVATNPVDILTYATWKFSGLPKERVIGSGTTLDSARFRFMLSEYFGAAPQNVHAHIIGEHGDTELPVWSHANVGGVPVSELVEKNDAYKQEELDQIVDDVKNAAYHIIEKKGATYYGVAMSLARITKAILHNENSILTVSTYLDGQYGADDVYIGVPAVVNRGGIAGITELNLNEKEKEQFLHSAGVLKNILKPHFAEQKVN
# B14: Ll-Ldh: (L)-lactate dehydrogenase of Lactococcus lactis, SEQ ID NO: 6 (protein, listed as Lactococcus lactis)
# chain: MADKQRKKVILVGDGAVGSSYAFALVNQGIAQELGIVDLFKEKTQGDAEDLSHALAFTSPKKIYSADYSDASDADLVVLTSGAPQKPGETRLDLVEKNLRITKDVVTKIVASGFKGIFLVAANPVDILTYATWKFSGFPKNRVVGSGTSLDTARFRQALAEKVDVDARSIHAYIMGEHGDSEFAVWSHANVAGVKLEQWFQENDYLNEAEIVELFESVRDAAYSIIAKKGATFYGVAVALARITKAILDDEHAVLPVSVFQDGQYGVSDCYLGQPAVVGAEGVVNPIHIPLNDAEMQKMEASGAQLKAIIDEAFAKEEFASAVKN
# B15: Q85N: L. lactis lactate dehydrogenase A, Ll-LdhA, mutant Q85N, SEQ ID No. 30 (protein, listed as Lactococcus lactis)
# chain: B14 chain with Q85N
# What was measured:
# Type in all cases: biochemical
# [1] = OHB reductase activity, NADH absorption at 340 nm
# Experimental: (§1) Enzymatic assays: The reaction mixture contained 60 mM Hepes (pH 7), 50 mM potassium chloride, 5 mM MgCl2, 0.25 mM NADH, (optionally 5 mM fructose-1,6-bisphosphate) (all products from Sigma), and appropriate amounts of purified malate or lactate dehydrogenase or cell extract. Reactions were started by adding appropriate amounts of 2-oxo-4-hydroxybutyrate (OHB), pyruvate, or oxaloacetate (OAA). Enzymatic assays were carried out at 37° C. in 96-well flat bottomed microtiter plates in a final volume of 250 μL. The reactions were followed by the characteristic absorption of NADH at 340 nm (εNADH=6.22 mM^−1 cm^−1) in a microplate reader (BioRad 680XR).
# OHB was synthesized by incubating 125 mM homoserine with snake venom (L)-amino acid oxidase (1.25 U/mL, Sigma) and catalase (4400 U/mL, Sigma) in 100 mM Tris buffer at pH 7.8 for 90 min at 37° C. Subsequently, the reaction mixture was purified on an Amicon™ Ultra centrifugal filter with a cut-off of 10 kDa to eliminate the enzymes (method adapted from Wellner & Lichtenberg, 1971).
# OHB was quantified by mixing 100 μL of the tested solution with 1 mL of a solution containing 1 M sodium arsenate and 1 M boric acid at pH 6.5. The mixture was incubated at room temperature for 30 min and the absorbance at 325 nm was used to quantify OHB. The relation between absorbance and concentration of the ketone was calibrated using pyruvate solutions of known concentrations (method adapted from (Wellner & Lichtenberg, 1971)). The typical OHB yield of the method was 90%.
# [2] = pyruvate reductase activity, NADH absorption at 340 nm; settings: for Max. specific activity, natural substrate: natural substrate of Ldh: pyruvate, purified enzyme, 37° C., pH 7
# Experimental: as §1
# [3] = oxaloacetate reductase activity, NADH absorption at 340 nm; settings: for Max. specific activity, OAA: measured at 0.5 mM oxaloacetate
# Experimental: as §1
# [4] = when not saturated, activity estimated at 20 mM substrate
# [5] = E. coli Mdh mutants, measured at 20 mM OHB
Molecule,"Max. specific activity, OHB [1, 4]","Max. specific activity, OHB [1, 5]","Max. specific activity, OAA ([3]; E. coli Mdh mutants)",further results
B1,66.8 µmol/mg/min,,,"Max. specific activity, natural substrate [2]: 87.7 µmol/mg/min"
B2,0.56 µmol/mg/min,,,"Max. specific activity, natural substrate [2]: 265 µmol/mg/min"
B3,,1.8 µmol/mg/min,1.16 µmol/mg/min,
B4,0.01 µmol/mg/min,0.01 µmol/mg/min,95 µmol/mg/min,"OHB reductase activity, in words [1]: very minor activity; Max. specific activity, natural substrate ([3]; natural substrate of Mdh: oxaloacetate, purified enzyme, 37° C., pH 7): 95.6 µmol/mg/min"
B5,,12.54 µmol/mg/min,2.2 µmol/mg/min,
B6,,19 µmol/mg/min,0.54 µmol/mg/min,"Km, OHB ([1]; E. coli Mdh mutants, ns = not saturated up to 50 mM OHB): ns; Km, OAA ([3]; E. coli Mdh mutants, ns = not saturated up to 0.5 mM oxaloacetate): ns"
B7,,3 µmol/mg/min,1 µmol/mg/min,
B8,,4.99 µmol/mg/min,0.5 µmol/mg/min,
B9,,4.9 µmol/mg/min,0.5 µmol/mg/min,
B10,,4.16 µmol/mg/min,0.37 µmol/mg/min,
B11,,18.9 µmol/mg/min,1.84 µmol/mg/min,
B12,,14.6 µmol/mg/min,0.67 µmol/mg/min,
B13,15.7 µmol/mg/min,,,"Max. specific activity, natural substrate [2]: 170 µmol/mg/min"
B14,18 µmol/mg/min,,,"Max. specific activity, natural substrate [2]: 184 µmol/mg/min"
B15,,,,"Max. specific activity, OHB ([1]; L. lactis Ll-LdhA mutants): 63.9 µmol/mg/min; Max. specific activity, Pyruvate ([2]; L. lactis Ll-LdhA mutants): 184 µmol/mg/min"
